4 sequences from the Immune Epitope Database (IEDB) can be followed below.

For one assay, the target named is HLA-B*15:01. Put plainly: IEDB peptide-MHC binding, purified MHC/competitive/fluorescence; filed as Kd, often an IC50 or EC50 that approximates it; ≥ and ≤ were set here for values at or beyond the usual limits of such assays.
The next assay deals with HLA-B*08:01. Described as above.
Another assay addresses HLA-A*69:01. Described as above.
Assay [1] has as its target HLA-A*31:01. Put plainly: IEDB peptide-MHC binding, purified MHC/direct/fluorescence; filed as Kd, often an IC50 or EC50 that approximates it; ≥ and ≤ were set here for values at or beyond the usual limits of such assays. Conditions: source organism: Salmonella enterica.
Assay [2] concerns the target HLA-A*03:01. Described as above. To be noted: source organism: Salmonella enterica.
Another assay has as its target HLA-A*26:02. The description is as above. Conditions: source organism: Salmonella enterica subsp. enterica serovar Typhimurium str. LT2.
The target in the next assay is HLA-B*15:09. The description is as above. Conditions: source organism: Salmonella enterica subsp. enterica serovar Typhimurium str. LT2.
For the next assay, the target named is HLA-B*57:01. Described as above. To be noted: source organism: Salmonella enterica.
The target in assay [3] is HLA-B*27:05. The description is as above. Conditions: source organism: Salmonella enterica.
The target in assay [4] is HLA-A*26:01. The assay is described as above. Conditions: source organism: Salmonella enterica subsp. enterica serovar Typhimurium str. LT2.
Assay [5] addresses HLA-B*40:01. The assay is described as above. Conditions: source organism: Salmonella enterica.
The next assay has as its target HLA-B*38:01. The assay is described as above. To be noted: source organism: Salmonella enterica subsp. enterica serovar Typhimurium str. LT2.
Assay [6] concerns the target HLA-A*02:01. The assay is described as above. Conditions: source organism: Salmonella enterica.
The target of assay [7] is HLA-B*58:01. The assay is described as above. Conditions: source organism: Salmonella enterica.
The next assay concerns the target HLA-B*15:17. Described as above. To be noted: source organism: Salmonella enterica.
The target of another assay is HLA-B*48:01. The assay is described as above. Conditions: source organism: Salmonella enterica.
In assay [8] the target is HLA-A*01:01. The description is as above. To be noted: source organism: Salmonella enterica.
The next assay addresses HLA-B*46:01. Described as above. To be noted: source organism: Salmonella enterica.
The target of a further assay is HLA-B*08:02. Described as above. To be noted: source organism: Salmonella enterica subsp. enterica serovar Typhimurium str. LT2.
For assay [9], the target named is HLA-A*11:01. The description is as above. To be noted: source organism: Salmonella enterica.
The next assay addresses HLA-B*15:42. Put plainly: IEDB peptide-MHC binding, purified MHC/competitive/fluorescence; filed as Kd, often an IC50 or EC50 that approximates it; ≥ and ≤ were set here for values at or beyond the usual limits of such assays. Conditions: source organism: Shigella flexneri 5 str. 8401.
The next assay deals with HLA-A*68:23. Described as above. Conditions: source organism: Shigella flexneri 5 str. 8401.
Assay [10] deals with HLA-B*40:01. Described as above.
The target in another assay is HLA-B*40:13. The description is as above. Conditions: source organism: Shigella flexneri 5 str. 8401.
The next assay has as its target HLA-B*83:01. The description is as above. To be noted: source organism: Shigella flexneri 5 str. 8401.
Another assay deals with HLA-B*45:06. The assay is described as above. To be noted: source organism: Shigella flexneri 5 str. 8401.
The target of a further assay is HLA-A*32:15. The assay is described as above. To be noted: source organism: Shigella flexneri 5 str. 8401.
Assay [11] has as its target HLA-A*31:01. Described as above. To be noted: source organism: Acinetobacter baumannii.
Assay [12] deals with HLA-A*03:01. The description is as above. Conditions: source organism: Acinetobacter baumannii.
Another assay deals with HLA-B*18:01. The description is as above. To be noted: source organism: Acinetobacter baumannii.
Assay [13] concerns the target HLA-B*27:05. The assay is described as above. To be noted: source organism: Acinetobacter baumannii.
Assay [14] concerns the target HLA-A*26:01. The description is as above. Conditions: source organism: Acinetobacter baumannii.
The next assay addresses HLA-B*35:01. Described as above. Conditions: source organism: Acinetobacter baumannii.
The target of assay [15] is HLA-A*02:01. Described as above.
Assay [16] deals with HLA-B*58:01. The description is as above. Conditions: source organism: Acinetobacter baumannii.
For a further assay, the target named is HLA-B*07:02. The description is as above. Conditions: source organism: Acinetobacter baumannii.
In the next assay the target is HLA-A*24:02. Described as above.
Assay [17] deals with HLA-A*01:01. Described as above. To be noted: source organism: Acinetobacter baumannii.
The target in assay [18] is HLA-A*11:01. The assay is described as above. Conditions: source organism: Acinetobacter baumannii.
Setting [19] is: source organism: Salmonella enterica subsp. enterica serovar Typhi.
[20] abbreviates: source organism: Acinetobacter baumannii.

With EIIFYHPTF, the Kd (in general, the equilibrium constant for the complex coming apart) was not below 20 µM with HLA-B*15:01 (setting [19]); not below 20 µM with HLA-B*08:01 (setting [19]); not below 20 µM in the assay with HLA-A*69:01 (setting [19]); not below 20 µM with HLA-A*31:01 [1]; not below 20 µM in the assay with HLA-A*03:01 [2]; not above 0.001 µM with HLA-A*26:02. In addition, the equilibrium dissociation constant (Kd) with HLA-B*15:09 is not below 20 µM; with HLA-B*57:01 it was not below 20 µM; with HLA-B*27:05 [3], not below 20 µM; in the assay with HLA-A*26:01 [4] it was 0.803 µM; in the assay with HLA-B*40:01 [5] it was not below 20 µM; with HLA-B*38:01, not below 20 µM. Also, the Kd with HLA-A*02:01 [6] was not below 20 µM; with HLA-B*58:01 [7], not below 20 µM; with HLA-B*15:17, 0.107 µM; in the assay with HLA-B*48:01, not below 20 µM; in the assay with HLA-A*01:01 [8] it was not below 20 µM; in the assay with HLA-B*46:01 it was not below 20 µM. Moreover, the Kd in the assay with HLA-B*08:02 and in the assay with HLA-A*11:01 [9] was not below 20 µM each time.

Regarding HEWKIPLLI, the dissociation constant (Kd) was not below 5 µM with HLA-B*15:42; 0.278 µM in the assay with HLA-A*68:23; 0.0097 µM with HLA-B*40:01 [10] (source organism: Shigella flexneri 5 str. 8401); 0.0109 µM in the assay with HLA-B*40:13; 10.5 µM with HLA-B*83:01; not below 5 µM with HLA-B*45:06. The equilibrium dissociation constant (Kd) with HLA-A*32:15 turned out to be 2.61 µM.

As for SIYAGNTPK, the dissociation constant (Kd) in the assay with HLA-A*31:01 [11] is 0.0344 µM; with HLA-A*03:01 [12] it was 0.0385 µM; with HLA-B*18:01 it was not below 20 µM; in the assay with HLA-B*15:01 (setting [20]) it was not below 20 µM; in the assay with HLA-B*08:01 (setting [20]), not below 20 µM; in the assay with HLA-B*27:05 [13] it was not below 20 µM. Further, the Kd in the assay with HLA-A*26:01 [14], with HLA-B*40:01 [10] (setting [20]), in the assay with HLA-B*35:01, with HLA-A*02:01 [15] (setting [20]), in the assay with HLA-B*58:01 [16] and with HLA-B*07:02 was not below 20 µM throughout. Also, the dissociation constant Kd is not below 20 µM with HLA-A*24:02 (setting [20]), not below 20 µM in the assay with HLA-A*01:01 [17], 0.015 µM with HLA-A*11:01 [18] and not below 20 µM in the assay with HLA-A*69:01 (setting [20]).

As to TLMFGFFGF, the dissociation constant Kd is 4 µM with HLA-A*02:01 [15] (setting [19]) and not below 5 µM with HLA-A*24:02 (setting [19]).
